Starred links: 1 amine or outer side, 2 acyl side, 3 side chain; linkers in the order of their positions; H or OH if unused. Non-standard residues stand in square brackets, D forms with d. Groups on a side chain read outwards from the residue. Primed or numbered codes have the meaning given here. No end group written: not given here. *: point of attachment. γGlu = O=C(O)[C@H](CCC(=O)[*:2])N[*:1]; Stearoyl = CCCCCCCCCCCCCCCCCC(=O)*; αMeF = C[C@](N)(Cc1ccccc1)C(=O)O; αMeK = C[C@](N)(CCCCN)C(=O)O; Lauroyl = CCCCCCCCCCCC(=O)*; αMeS = C[C@](N)(CO)C(=O)O; PEG2′ = not defined here; Aib = CC(C)(N)C(=O)O
What was measured:
Assay in all cases: cell-based or functional assay
[1] = biological target: T1, glucose-dependent insulinotropic peptide (gastric inhibitory polypeptide) receptor (GIPR) (human, UniProt P48546 22-466)
T1 sequence (looked up): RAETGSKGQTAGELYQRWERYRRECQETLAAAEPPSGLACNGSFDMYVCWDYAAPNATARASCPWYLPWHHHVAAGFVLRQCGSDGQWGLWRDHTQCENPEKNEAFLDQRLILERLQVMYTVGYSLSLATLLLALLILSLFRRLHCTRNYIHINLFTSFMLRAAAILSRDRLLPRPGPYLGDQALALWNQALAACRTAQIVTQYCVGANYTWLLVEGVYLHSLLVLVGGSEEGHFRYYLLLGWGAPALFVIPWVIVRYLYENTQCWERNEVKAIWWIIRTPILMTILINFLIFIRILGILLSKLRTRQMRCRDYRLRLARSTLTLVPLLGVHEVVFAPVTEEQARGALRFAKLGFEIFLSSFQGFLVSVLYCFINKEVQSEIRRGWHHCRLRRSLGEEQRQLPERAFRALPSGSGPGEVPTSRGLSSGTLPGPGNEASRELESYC

GLP-1 receptor (GLP-1R) = GLP-1 receptor (GLP-1R) (human, UniProt P43220 24-463)
glucagon receptor (GCGR) = glucagon receptor (GCGR) (human, UniProt P47871 26-477)
glucagon receptor (GCGR), sequence (P47871 26-477): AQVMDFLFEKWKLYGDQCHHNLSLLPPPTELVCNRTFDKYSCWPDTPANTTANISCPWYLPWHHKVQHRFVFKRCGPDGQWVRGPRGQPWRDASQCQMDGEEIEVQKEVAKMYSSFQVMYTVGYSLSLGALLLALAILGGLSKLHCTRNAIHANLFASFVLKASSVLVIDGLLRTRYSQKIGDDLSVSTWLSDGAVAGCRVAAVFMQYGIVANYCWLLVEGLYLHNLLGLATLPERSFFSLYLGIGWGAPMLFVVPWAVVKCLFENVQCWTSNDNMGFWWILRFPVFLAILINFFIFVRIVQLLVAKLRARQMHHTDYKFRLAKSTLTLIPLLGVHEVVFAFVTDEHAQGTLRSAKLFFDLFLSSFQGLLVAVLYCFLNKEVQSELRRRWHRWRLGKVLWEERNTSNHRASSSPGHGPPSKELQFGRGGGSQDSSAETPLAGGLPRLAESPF

[2] = biological target: glucagon receptor (GCGR), primary cAMP assay cell line (human, UniProt P47871 26-477)
glucagon receptor (GCGR), primary cAMP assay cell line, sequence (P47871 26-477): as above

[3] = biological target: T2, glucose-dependent insulinotropic peptide (gastric inhibitory polypeptide) receptor (GIPR), primary cAMP assay … (human, UniProt P48546 22-466)
T2 sequence (looked up): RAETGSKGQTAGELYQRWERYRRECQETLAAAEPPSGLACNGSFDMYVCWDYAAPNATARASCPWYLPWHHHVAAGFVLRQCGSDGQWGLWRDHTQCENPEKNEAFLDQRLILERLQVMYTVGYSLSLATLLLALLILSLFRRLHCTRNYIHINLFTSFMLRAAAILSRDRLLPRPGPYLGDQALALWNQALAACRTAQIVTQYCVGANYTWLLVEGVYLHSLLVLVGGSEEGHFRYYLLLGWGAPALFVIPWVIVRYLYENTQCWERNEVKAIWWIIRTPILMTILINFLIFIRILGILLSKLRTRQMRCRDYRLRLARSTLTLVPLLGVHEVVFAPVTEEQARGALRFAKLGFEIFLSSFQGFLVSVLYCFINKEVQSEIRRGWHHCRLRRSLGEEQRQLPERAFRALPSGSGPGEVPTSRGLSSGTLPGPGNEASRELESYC

[4] = biological target: GLP-1 receptor (GLP-1R), primary cAMP assay cell line (human, UniProt P43220 24-463)

Row | Binder | Primary assay EC50 (cAMP), GIP-R, first run [1] | Primary assay EC50 (cAMP), GIP-R, second run [1] | Primary assay EC50 (cAMP), GLP-1R n1 (GLP-1 receptor (GLP-1R)) | Primary assay EC50 (cAMP), GLP-1R n2 (GLP-1 receptor (GLP-1R)) | Primary assay EC50 (cAMP), Mean pM GLP-1R (GLP-1 receptor (GLP-1R)) | Primary assay EC50 (cAMP), Gluc-R, first run (glucagon receptor (GCGR)) | Primary assay EC50 (cAMP), Gluc-R, second run (glucagon receptor (GCGR)) | cAMP Primary assay EC50, n1 [2] | cAMP Primary assay EC50, n2 [2] | cAMP Primary assay EC50, n1 [3] | cAMP Primary assay EC50, n2 [3] | cAMP Primary assay EC50, Mean pM GLP-1R [4] | cAMP Primary assay EC50, n1 [4] | cAMP Primary assay EC50, n2 [4]
1 | H[Aib]EGS[αMeF]TSDV[αMeS]S[αMeF]LEGEAAK([PEG2′-PEG2′-Stearoyl])E[αMeF]IA[αMeF]VV[αMeK]GG-NH2 [SEQ ID NO 153] | 27 nM | 27 nM | 0.0079 nM | 0.005 nM | 6.4 pM | 27 nM | 27 nM | – | – | – | – | – | – | –
2 | H[Aib]EGS[αMeF]TSDV[αMeS]SYK([PEG2′-PEG2′-γGlu-Lauroyl])EK([PEG2′-PEG2′-γGlu-Lauroyl])EAA[αMeK]EFIAFK([PEG2′-PEG2′-γGlu-Lauroyl])VEGG-NH2 [SEQ ID NO: 483] | – | – | – | – | – | – | – | 19.6 nM | 19.6 nM | 19.6 nM | 19.6 nM | 244 pM | 0.229 nM | 0.258 nM
3 | H[Aib]EGS[αMeF]TSDK([PEG2′-PEG2′-γGlu-Lauroyl])SSYLEGK([PEG2′-PEG2′-γGlu-Lauroyl])AA[αMeK]EFIAFK([PEG2′-PEG2′-γGlu-Lauroyl])VEGG-NH2 [SEQ ID NO: 472] | – | – | – | – | – | – | – | 19.9 nM | 19.9 nM | 19.9 nM | 19.9 nM | 287 pM | 0.297 nM | 0.277 nM
4 | H[Aib]EGS[αMeF]TSDV[αMeS]SYK([PEG2′-PEG2′-γGlu-Lauroyl])EGEAA[αMeK]K([PEG2′-PEG2′-γGlu-Lauroyl])FIAFK([PEG2′-PEG2′-γGlu-Lauroyl])VEGG-NH2 [SEQ ID NO: 486] | – | – | – | – | – | – | – | 19.9 nM | 19.9 nM | 19.9 nM | 19.9 nM | 212 pM | 0.165 nM | 0.259 nM
5 | H[Aib]EGS[αMeF]TSDV[αMeS]SK([PEG2′-PEG2′-γGlu-Lauroyl])LEK([PEG2′-PEG2′-γGlu-Lauroyl])EAA[αMeK]EFIAFK([PEG2′-PEG2′-γGlu-Lauroyl])VEGG-NH2 [SEQ ID NO: 479] | – | – | – | – | – | – | – | 19.8 nM | 19.8 nM | 19.8 nM | 19.8 nM | 186 pM | 0.132 nM | 0.239 nM
6 | H[Aib]EGS[αMeF]TSDV[αMeS]SYK([PEG2′-PEG2′-γGlu-Lauroyl])EGK([PEG2′-PEG2′-γGlu-Lauroyl])AA[αMeK]EFIAFK([PEG2′-PEG2′-γGlu-Lauroyl])VEGG-NH2 [SEQ ID NO: 484] | – | – | – | – | – | – | – | 19.9 nM | 19.9 nM | 19.9 nM | 19.9 nM | 166 pM | 0.163 nM | 0.168 nM
7 | H[Aib]EGS[αMeF]TSDK([PEG2′-PEG2′-γGlu-Lauroyl])SSYLEGEK([PEG2′-PEG2′-γGlu-Lauroyl])A[αMeK]EFIAFK([PEG2′-PEG2′-γGlu-Lauroyl])VEGG-NH2 [SEQ ID NO: 473] | – | – | – | – | – | – | – | 19.6 nM | 19.6 nM | 19.6 nM | 19.6 nM | 434 pM | 0.399 nM | 0.47 nM
8 | H[Aib]EGS[αMeF]TSDVSK([PEG2′-PEG2′-γGlu-Lauroyl])YLEGEK([PEG2′-PEG2′-γGlu-Lauroyl])A[αMeK]EFIAFK([PEG2′-PEG2′-γGlu-Lauroyl])VEGG-NH2 [SEQ ID NO: 477] | – | – | – | – | – | – | – | 19.6 nM | 19.6 nM | 19.6 nM | 19.6 nM | 264 pM | 0.226 nM | 0.302 nM
9 | H[Aib]EGS[αMeF]TSDV[αMeS]SYK([PEG2′-PEG2′-γGlu-Lauroyl])EGEK([PEG2′-PEG2′-γGlu-Lauroyl])A[αMeK]EFIAFK([PEG2′-PEG2′-γGlu-Lauroyl])VEGG-NH2 [SEQ ID NO: 485] | – | – | – | – | – | – | – | 19.6 nM | 19.6 nM | 19.6 nM | 19.6 nM | 196 pM | 0.167 nM | 0.224 nM
10 | H[Aib]EGS[αMeF]TSDK([PEG2′-PEG2′-γGlu-Lauroyl])SSYLEGEAA[αMeK]K([PEG2′-PEG2′-γGlu-Lauroyl])FIAFK([PEG2′-PEG2′-γGlu-Lauroyl])VEGG-NH2 [SEQ ID NO: 474] | – | – | – | – | – | – | – | 19.9 nM | 19.9 nM | 19.9 nM | 19.9 nM | 290 pM | 0.279 nM | 0.3 nM
11 | H[Aib]EGS[αMeF]TSDVSK([PEG2′-PEG2′-γGlu-Lauroyl])YLEGEAA[αMeK]K([PEG2′-PEG2′-γGlu-Lauroyl])FIAFK([PEG2′-PEG2′-γGlu-Lauroyl])VEGG-NH2 [SEQ ID NO: 478] | – | – | – | – | – | – | – | 19.8 nM | 19.8 nM | 19.8 nM | 19.8 nM | 118 pM | 0.103 nM | 0.134 nM
12 | H[Aib]EGS[αMeF]TSDVSK([PEG2′-PEG2′-γGlu-Lauroyl])YLEGK([PEG2′-PEG2′-γGlu-Lauroyl])AA[αMeK]EFIAFK([PEG2′-PEG2′-γGlu-Lauroyl])VEGG-NH2 [SEQ ID NO: 476] | – | – | – | – | – | – | – | 19.8 nM | 19.8 nM | 19.8 nM | 19.8 nM | 216 pM | 0.174 nM | 0.257 nM
13 | H[Aib]EGS[αMeF]TSDVSK([PEG2′-PEG2′-γGlu-Lauroyl])YLEK([PEG2′-PEG2′-γGlu-Lauroyl])EAA[αMeK]EFIAFK([PEG2′-PEG2′-γGlu-Lauroyl])VEGG-NH2 [SEQ ID NO: 475] | – | – | – | – | – | – | – | 19.5 nM | 19.5 nM | 19.5 nM | 19.5 nM | 288 pM | 0.228 nM | 0.347 nM
14 | H[Aib]EGS[αMeF]TSDV[αMeS]SK([PEG2′-PEG2′-γGlu-Lauroyl])LEGEK([PEG2′-PEG2′-γGlu-Lauroyl])A[αMeK]EFIAFK([PEG2′-PEG2′-γGlu-Lauroyl])VEGG-NH2 [SEQ ID NO: 481] | – | – | – | – | – | – | – | 19.8 nM | 19.8 nM | 19.8 nM | 19.8 nM | 143 pM | 0.137 nM | 0.149 nM
